Experimental data published in paper PMC3796367.

Columns and labels:
[1] = target: Pks4 SAT(C117A)-KS-MAT tridomain; assay: cross-linking
[2] = target: Pks4 SAT(C117A)-KS-MAT tridomain; assay: ITC

Substance “Pks4 ACP loaded with a pantetheine crosslinker (crypto-ACP) (domain or fragment)” has a stoichiometry N (ACP monomers per S0KM dimer) [1] of 2.

Work on “Pks4 apo-ACP (stand-alone ACP domain of Pks4) (domain or fragment)” yielded a Kd [2] of 15 µM.

For “PksA apo-ACP (stand-alone ACP domain of PksA) (domain or fragment)”, the Kd [2] was 30 µM.
